Measured values taken from patent publication US20240336907A1, “NOVEL ENDO-ß-N-ACETYLGLUCOSAMINIDASE” (priority 2020, published 2024).

Tests used:
mAb1 [1] = experiment: Evaluation of reaction pH for hydrolysis of mAb1 sugar chain; format: biochemical
Description: The hydrolysis rates of a sugar chain with Endo-Si and EndoS at individual pH values were measured as follows. A 50 mM citric acid-sodium phosphate buffer (pH 5.0 or 5.5) solution, sodium phosphate buffer (pH 6.0, 6.5 or 7.0) solution or Tris-HCl buffer (pH 7.5, 8.0, 8.5 or 9.0) solution (50 μL for each) containing 0.1 mg of mAb1, and 10 ng of Endo-Si WT or EndoS WT, was prepared and incubated at 37° C. Each of the reaction solutions at a half hour after initiation of reaction was sampled and the hydrolysis rate of a sugar chain was calculated in accordance with the aforementioned method.

IgA = experiment: Substrate specificity in various antibodies (band shift in electrophoresis); format: biochemical, human; conditions: 10 μg substrate, 1 μg enzyme, 37° C., pH 7.5, two hours
Description: (§1) The hydrolysis activities of Endo-Si, EndoS and PNGaseF on various antibodies were measured as follows. A 50 mM Tris-HCl buffer (pH 7.5) solution (50 μL) containing each of various substrates (10 μg), and 1 μg Endo-Si WT was prepared and incubated at 37° C. As the substrate, human IgG1-4, IgA, and IgE (all manufactured by Sigma Aldrich) were used. As the controls, 1 μg of EndoS WT and 500 U PNGase F PRIME (manufactured by N-zyme Scientifics) were used. Two hours after initiation of the reaction, a sample was taken from the reaction solution and analyzed for protein by a fully automated electrophoresis system mentioned above.
(§2) When a sugar chain is hydrolyzed by addition of an enzyme, the band of a protein shifts to the lower molecular weight side compared to when the enzyme was not added.

IgE = experiment: as above; format: biochemical, human; conditions: 10 μg substrate, 1 μg enzyme, 37° C., pH 7.5, two hours
Description: as §1, §2

[2] = Substrate specificity in various 2-AB labeled sugar chains (HPLC); format: biochemical; conditions: 37° C., 24 hours
Description: The substrate specificity of Endo-Si in various sugar chains were measured as follows. A 50 mM Tris-HCl buffer (pH 7.5) solution (10 μL) containing 5 pmol of each of various sugar chains labeled with 2-AB (manufactured by Agilent Technologies) and 20 μg of Endo-Si WT, was prepared and incubated at 37° C. for 24 hours, and thereafter treated at 95° C. for 5 minutes to terminate the reaction. The reaction solution was subjected to HPLC analysis carried out under the following conditions.
[HPLC Analysis Conditions]
HPLC apparatus: 1200 Infinity LC (manufactured by Agilent Technologies)
Column: ACQUITY UPLC Glycan Amide 130 Å, 1.7 μm, 2.1×150 mm (manufactured by Waters)
Column temperature: 40° C.
Detector: Fluorescence detector RF-20Axs (manufactured by Shimadzu Corporation)
Mobile phase A: H2O+0.1% HCOOH
Mobile phase B: Acetonitrile+0.1% HCOOH
Gradient (mobile phase B %): 90% (0 minute), 40% (25 minutes)
Enzyme activity was calculated based on the peak area ratio between a substrate and a hydrolysate, GlcNAc-2AB. […] Of them, the activity on (specificity to) G0 sugar chain is the highest.

human IgG1-4 = experiment: Substrate specificity in various antibodies (band shift in electrophoresis); format: biochemical; conditions: 10 μg substrate, 1 μg enzyme, 37° C., pH 7.5, two hours
Description: as §1, §2

[3] = system: trastuzumab (mAb1) N297-linked sugar chain; experiment: Hydrolysis activity on antibody sugar chain (sugar chain hydrolysis rate, fully automated electrophoresis); format: biochemical; conditions: 0.5 hours after initiation of the reaction; 0.1 mg mAb1, 10 ng enzyme, 37° C., pH 7.5
Description: The enzyme obtained in Example 2 was measured for hydrolysis activity by the following method. At this time, EndoS was used as a comparative subject.
In sterile water (5 mL), mAb1 (60 mg) was dissolved. The solution was replaced with 50 mM Tris-HCl buffer (pH 7.5) while concentrating the solution by Vivaspin 20 (30,000 MWCO, PES, manufactured by Sartorius).
A reaction solution containing the mAb1 (0.1 mg) and 10 ng of the enzyme (total volume 50 μL) was prepared and incubated at 37° C. Each of the reaction solutions at 0.5, 1, and 2 hours after initiation of the reaction was sampled and analyzed for protein by a fully automated electrophoresis system as mentioned above. In the chromatogram obtained, an unreacted product and a hydrolysate are confirmed as discrete peaks. From the peak-area ratio between the unreacted product and the hydrolysate, the hydrolysis rate of a sugar chain was calculated in accordance with the following expression.

mAb1 [4] = experiment: Evaluation of reaction temperature for hydrolysis of mAb1 sugar chain; format: biochemical
Description: The hydrolysis rates of a sugar chain with Endo-Si and EndoS at individual temperatures were measured as follows. A 50 mM Tris-HCl buffer (pH 7.5) solution (50 μL) containing 0.1 mg of mAb1 and 10 ng of Endo-Si WT or EndoS WT was prepared and incubated at each temperature of 27, 29, 31, 35, 37, 40, 43, 46, 48, and 50° C. Each of the reaction solutions at a half hour after initiation of a reaction was sampled and the hydrolysis rate of a sugar chain was calculated in accordance with the aforementioned method.

(Fucα1,6)GlcNAc-mAb2 = experiment: Transglycosylation activity with sugar chain oxazoline [N3-PEG(3)]-MSG1(9)-Ox as donor; format: biochemical; conditions: donor [N3-PEG(3)]-MSG1(9)-Ox (8 eq.), enzyme 1.25 μg, 28° C., pH 7.5
Description: Transglycosylation activity was evaluated as follows. […] A sample was taken from each of the reaction solutions at 1, 2, 4, 6, and 24 hours after initiation of the reaction and analyzed for protein by a fully automated electrophoresis system as mentioned above. In the chromatogram obtained, an unreacted product and transglycosylated molecule, mAb2-(MSG1-N3)2 were confirmed as discrete peaks. The transglycosylation rate was calculated based on the peak-area ratio between the unreacted product and the transglycosylated molecule in accordance with the following expression.
Transglycosylation rate (%)=[[peak area of mAb2-(MSG1-N3)2-derived H chain]/{[peak area of (Fucα1,6)GlcNAc-mAb2-derived H chain]+[peak area of mAb2-(MSG1-N3)2-derived H chain]}]×100
Similarly, the transglycosylation rates of individual Endo-Si mutant enzymes at each time period for a reaction were calculated (Table 5).

B1: Endo-Si WT: endo-β-N-acetylglucosaminidase derived from Streptococcus iniae, amino acid positions 34 to 928 in SEQ ID NO: 2 (protein, listed as Streptococcus iniae)
chain: REELKMPNGLEQSIADVEAKIDALTYLSKNSKDEFKHSMYEIPSNREHKPVSPKQALQNAKKADAQAERLAKMTIPKKEELKALEGPLYGGYFRTWQDKTSDPTETNKVNSFGELPKEVDLAFVFHDYTKDYSLFWEELATKQVPKLNKQGTRVIRTIPWRFLSGADHSDISADKEKFPNTEAGNKALAKAIVDEYVYKYNLDGLDIDIERDSVPKVNDKEDPEALARTVEVFKEIGKLIGANGADKSRLLIMDTTYTAEENPLIKETAQYLNLLLVQVYGFSGENGNYLHHKNILDETSSMEGRWQGYSKYIRPEQYMVGFSFYEEKDFNNRWKDINEEDPSDPHIGEKIQGTRAERYAKWQPKTGGLKGGLFSYAIDRDGVAQPKQKTEHPELDKIVKSEYKVSKALKKLMMTDDQYQPIDQSDFPDKALRESIIKQVGTRRGDLERFKGTLRLDNPEIKDLTGLNKLKRVAKLELINLPKITKIDKDDLPQNLKPLTDNQKSNLEIKGTYDDSKLYKDIPAFDLVISGLSGLESLDISGHQRDTLSGIDASTLPSLKAINISDNHFDLAQGTENRHILDTILATLAKNGASTASFDKQKPKGLYPESYSTAPLHLQVGQGKINVIDDLIFGTRTNQNTLINTENDFEAYKEQTIQGKPFIAPDYLYDNFKVSYKEYSASIVDSTLAETTDKTIDTAKAETYQVTVSNKDGKTVHSVKVIVGDEKPMMVNLAQDAKIIGTDNMTQSAKVFDGQKDQFLLSWNKDSSVIFELKTPGTAKHWRFFDDGKNDSVTLSVFKGDASNFETEKDKAENWVEITKDSRKNDDKVFSSPLEVDNAKYLKVTIKKEAKYIYFNELQILGYPGVVAKKTADDLRPTEADKSDDKSDKNDTEAK
Q: For B1, which “hydrolysis activity compared with EndoS” value (mAb1 [1]; at around pH 6.7 or more) is on record?
A: higher than that of EndoS

Q: And the “optimum pH for hydrolysis: particularly around” value (mAb1 [1]; mAb1, 37° C., half hour reaction, particularly around (pH 7.2 to 8.0))?
A: ~7.5 pH

Q: And the “hydrolysis activity on IgA” value (IgA)?
A: no hydrolysis activity

Q: What about the “hydrolysis activity on IgE” value (IgE) of the same molecule?
A: no hydrolysis activity

Q: And the Relative activity ([2]; substrate 2-AB G0 (agafacto biantennary), reference regarded as 100%)?
A: 100%

Q: And the Relative activity ([2]; substrate 2-AB G2 (asfato biantennary), activity against G0 sugar chain regarded as 100%)?
A: 73.2%

Q: What about the Relative activity ([2]; substrate 2-AB G2F (core-fucosylated biantennary), activity against G0 sugar chain regarded as 100%) of the same molecule?
A: 50.1%

Q: What about the Relative activity ([2]; substrate 2-AB G2S2 (a2,6) (sialyl biantennary), activity against G0 sugar chain regarded as 100%) of the same molecule?
A: 17.1%

Q: What about the Relative activity ([2]; substrate 2-AB G3 (triantennary), activity against G0 sugar chain regarded as 100%) of the same molecule?
A: Not detected

Q: What about the Relative activity ([2]; substrate 2-AB Man3, activity against G0 sugar chain regarded as 100%) of the same molecule?
A: 7.2%

Q: What about the Relative activity ([2]; substrate 2-AB Man 5, activity against G0 sugar chain regarded as 100%) of the same molecule?
A: 1.9%

Q: And the Relative activity ([2]; substrate 2-AB Man6, activity against G0 sugar chain regarded as 100%)?
A: 6.6%

Q: What about the Relative activity ([2]; substrate 2-AB Man8, activity against G0 sugar chain regarded as 100%) of the same molecule?
A: 5.2%

Q: What about the Relative activity ([2]; substrate 2-AB Man9, activity against G0 sugar chain regarded as 100%) of the same molecule?
A: 3.3%

Q: What about the “hydrolysis activity on the 4 subclasses of IgG” value (human IgG1-4) of the same molecule?
A: exhibited hydrolysis activity

Q: And the “hydrolysis rate of a sugar chain” value [3]?
A: 57.4%

Q: What about the “hydrolysis activity compared with EndoS” value (mAb1 [4]; at individual temperatures 27 to 50° C.) of the same molecule?
A: higher hydrolysis activity than EndoS

Q: And the “optimum reaction temperature for hydrolysis: particularly around” value (mAb1 [4]; mAb1, pH 7.5, half hour reaction, particularly around (35° C. to 39° C.))?
A: around 37 °C

Q: What about the Transglycosylation rate ((Fucα1,6)GlcNAc-mAb2; 1 h) of the same molecule?
A: 0.0%

Q: And the Transglycosylation rate ((Fucα1,6)GlcNAc-mAb2; 2 h)?
A: 0.0%

Q: What about the Transglycosylation rate ((Fucα1,6)GlcNAc-mAb2; 4 h) of the same molecule?
A: 0.0%

Q: What about the Transglycosylation rate ((Fucα1,6)GlcNAc-mAb2; 6 h) of the same molecule?
A: 0.0%

Q: What about the Transglycosylation rate ((Fucα1,6)GlcNAc-mAb2; 24 h) of the same molecule?
A: 0.0%
